{"source": "patent US20230322857A1", "about": "“RECOMBINANTLY ENGINEERED POLYPEPTIDES CAPABLE OF RECYCLING NONCANONICAL COFACTORS” (The Regents of the University of California, priority 2022, published 2023)", "molecules": {"B1": {"name": "LY-6: phosphite dehydrogenase variant with A155N, E175Q, A176S (SEQ ID NO:4) (protein)", "chain": "MLPKLVITHRVHEEILQLLAPHCELITNQTDSTLTREEILRRCRDAQAMMAFMPDRVDADFLQACPELRVIGCALKGFDNFDVDACTARGVWLTFVPDLLTVPTAELAIGLAVGLGRHLRAADAFVRSGKFRGWQPRFYGTGLDNATVGFLGMGNIGLAMADRLQGWGATLQYHQSKALDTQTEQRLGLRQVACSELFASSDFILLALPLNADTLHLVNAELLALVRPGALLVNPCRGSVVDEAAVLAALERGQLGGYAADVFEMEDWARADRPQQIDPALLAHPNTLFTPHIGSAVRAVRLEIERCAAQNILQALAGERPINAVNRLPKANPAAD"}}, "type_in_all_cases": "biochemical", "key": {"[1]": {"experiment": "Steady-state kinetics of TS-PTDH variants with NADP^+", "settings": "100 mM MOPS, pH 7.25, 10 mM sodium phosphite, varied cofactor concentrations; n = 3", "experimental": "(§1) Purification and Characterization of TS-PTDH Variants. The E. coli BL21(DE3) strains harboring pQElac plasmids encoding the TS-PTDH or TS-PTDH variants were grown in 2×YT media with kanamycin and ampicillin at 37° C. The IPTG-inducible expression, Ni-affinity purification, and protein concentration determination was conducted as described above.\n(§2) The steady-state kinetic parameters toward the coenzymes were measured by spiking purified protein into a 100 μL reaction mixture containing 100 mM MOPS, pH 7.25, 10 mM sodium Pt, and varied cofactor concentrations from 0.02 mM to 5 mM at 25° C. The kinetic parameters were measured by monitoring the […] of reduced coenzyme at 340 nm. Data were fitted to the Michaelis-Menten equation to generate estimates of KM and kcat values."}, "[2]": {"experiment": "Steady-state kinetics of TS-PTDH variants with NAD^+", "settings": "100 mM MOPS, pH 7.25, 10 mM sodium phosphite, varied cofactor concentrations; n = 3", "experimental": "as §1, §2"}, "[3]": {"experiment": "Steady-state kinetics of TS-PTDH variants with NMN^+", "experimental": "as §1, §2"}, "[4]": {"settings": "100 mM MOPS, pH 7.25, 10 mM sodium phosphite, varied cofactor concentrations, n = 3"}}}
{"molecule": "B1", "values": [{"measurement": "Km", "setting": "[1]", "result": "50 ± 10", "unit": "µM"}, {"measurement": "NADP^+ kcat", "setting": "[1]", "result": "0.95 ± 0.05", "unit": "s⁻¹"}, {"measurement": "Km", "setting": "[2]", "result": "110 ± 10", "unit": "µM"}, {"measurement": "NAD^+ kcat", "setting": "[2]", "result": "1.04 ± 0.08", "unit": "s⁻¹"}, {"measurement": "Km", "setting": "[3]; [4]", "result": "1100 ± 100", "unit": "µM"}, {"measurement": "NMN^+ kcat", "setting": "[3]; [4]", "result": "0.18 ± 0.01", "unit": "s⁻¹"}, {"measurement": "increased catalytic efficiency (kcat/Km) for NMN^+ compared to TS-PTDH A155N", "setting": "[3]; vs parent enzyme TS-PTDH A155N", "result": "~17", "unit": "fold"}]}
